Among the targets are PSD-95 PDZ1 (human); PSD-95 PDZ2 (human); PSD-95 PDZ1-2 (human); PSD-95 PDZ1-2-3 (human).
Holding throughout (assay): fluorescence polarisation; monomeric FP assay with monomeric fluorescent peptide probes (PSD-95 PDZ1-2, PDZ1-2-3 and single PDZ domains); 50 mM TRIS, 100 mM NaCl, 1 mM EDTA, 1 mM DTT

With CRIPT hexapeptide YKQTSV (1), the affinity turned out to be 97 µM with PSD-95 PDZ1 (human) and 25 µM with PSD-95 PDZ2 (human). Moreover, the fold lower affinity than 17 in the experiment with PSD-95 PDZ1-2 (human) and with PSD-95 PDZ1-2-3 (human) was above 1000 fold in each case.

The record behind these values is paper PMC4319893, “Targeting Protein-Protein Interactions with Trimeric Ligands: High Affinity Inhibitors of the MAGUK Protein Family” (PLoS ONE, 2015).
